According to US20170210813A1 (Regeneron, published 2017):
Blank lines part the entries; values can stand above or below the binder they belong to.

Tests used:
human PDGFRb.hFc [1] = target: T1, human PDGFRb.hFc (human); experiment: SPR, mAb captured, 37 C
T1 construct: Soluble dimeric construct with human Fc; also called hPDGFRb.hFc
Experimental: (§1) Antibodies, expressed as either mouse Fc (prefix H1M; H2M) or human Fc (prefix H4H), were captured on their respective anti-Fc sensor surfaces (Mab capture format). […] Kinetic association (kₐ) and dissociation (kd) rate constants were determined by processing and fitting the data to a 1:1 binding model using Scrubber 2.0 curve fitting software.

hPDGFRb.mmh [2] = target: T2, hPDGFRb.mmh (human, UniProt P09619 33-531); experiment: SPR, mAb captured, 37 C
T2 construct: Soluble monomeric construct; also called soluble human PDGFR-beta.mmh
Experimental: as §1
Target sequence in this assay (P09619 other isoform, or with tags, fused parts or gaps): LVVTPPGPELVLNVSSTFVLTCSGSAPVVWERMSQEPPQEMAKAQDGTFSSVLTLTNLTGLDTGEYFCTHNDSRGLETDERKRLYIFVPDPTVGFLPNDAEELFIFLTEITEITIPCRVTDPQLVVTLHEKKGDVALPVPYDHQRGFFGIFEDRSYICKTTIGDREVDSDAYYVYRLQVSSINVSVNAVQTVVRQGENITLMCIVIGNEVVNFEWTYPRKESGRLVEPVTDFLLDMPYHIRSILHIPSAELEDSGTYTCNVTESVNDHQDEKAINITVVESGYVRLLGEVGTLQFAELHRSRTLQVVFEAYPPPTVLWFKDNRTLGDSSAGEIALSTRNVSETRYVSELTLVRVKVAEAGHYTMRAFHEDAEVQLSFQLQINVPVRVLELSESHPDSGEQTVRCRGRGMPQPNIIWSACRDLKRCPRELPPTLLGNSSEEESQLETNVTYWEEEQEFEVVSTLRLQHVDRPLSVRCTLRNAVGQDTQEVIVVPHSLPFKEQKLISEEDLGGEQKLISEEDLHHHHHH

[3] = target: T3, Macaca fascicularis PDGFRb.mmh (Macaca fascicularis); experiment: SPR, mAb captured, 37 C
T3 construct: Soluble monomeric construct; also called mfPDGFRb.mmh
T3 chain: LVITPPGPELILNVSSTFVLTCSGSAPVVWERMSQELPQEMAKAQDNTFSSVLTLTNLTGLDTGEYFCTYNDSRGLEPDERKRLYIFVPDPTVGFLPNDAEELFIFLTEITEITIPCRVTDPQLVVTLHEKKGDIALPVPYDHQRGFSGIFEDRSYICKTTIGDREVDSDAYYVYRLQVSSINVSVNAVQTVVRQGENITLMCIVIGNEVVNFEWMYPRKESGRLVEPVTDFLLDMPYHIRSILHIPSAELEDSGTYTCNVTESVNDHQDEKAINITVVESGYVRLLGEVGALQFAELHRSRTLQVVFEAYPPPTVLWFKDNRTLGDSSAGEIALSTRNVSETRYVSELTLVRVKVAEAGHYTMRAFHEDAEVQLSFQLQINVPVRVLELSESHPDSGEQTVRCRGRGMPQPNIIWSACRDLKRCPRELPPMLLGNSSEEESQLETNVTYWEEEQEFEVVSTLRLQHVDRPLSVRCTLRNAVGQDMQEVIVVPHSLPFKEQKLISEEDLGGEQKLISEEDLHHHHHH
Experimental: as §1

human PDGFRb.hFc [4] = target: T1, human PDGFRb.hFc; experiment: SPR, mAb captured, 25 C
Experimental: as §1

hPDGFRb.mmh [5] = target: T2, hPDGFRb.mmh; experiment: SPR, mAb captured, 25 C
Experimental: as §1

[6] = target: T3, Macaca fascicularis PDGFRb.mmh; experiment: SPR, mAb captured, 25 C
Experimental: as §1

[7] = target: full length human PDGFR-beta on HEK293 cells (human, UniProt P09619 33-1106); experiment: cell-based or functional assay
full length human PDGFR-beta on HEK293 cells, sequence (P09619 33-1106 limits assumed): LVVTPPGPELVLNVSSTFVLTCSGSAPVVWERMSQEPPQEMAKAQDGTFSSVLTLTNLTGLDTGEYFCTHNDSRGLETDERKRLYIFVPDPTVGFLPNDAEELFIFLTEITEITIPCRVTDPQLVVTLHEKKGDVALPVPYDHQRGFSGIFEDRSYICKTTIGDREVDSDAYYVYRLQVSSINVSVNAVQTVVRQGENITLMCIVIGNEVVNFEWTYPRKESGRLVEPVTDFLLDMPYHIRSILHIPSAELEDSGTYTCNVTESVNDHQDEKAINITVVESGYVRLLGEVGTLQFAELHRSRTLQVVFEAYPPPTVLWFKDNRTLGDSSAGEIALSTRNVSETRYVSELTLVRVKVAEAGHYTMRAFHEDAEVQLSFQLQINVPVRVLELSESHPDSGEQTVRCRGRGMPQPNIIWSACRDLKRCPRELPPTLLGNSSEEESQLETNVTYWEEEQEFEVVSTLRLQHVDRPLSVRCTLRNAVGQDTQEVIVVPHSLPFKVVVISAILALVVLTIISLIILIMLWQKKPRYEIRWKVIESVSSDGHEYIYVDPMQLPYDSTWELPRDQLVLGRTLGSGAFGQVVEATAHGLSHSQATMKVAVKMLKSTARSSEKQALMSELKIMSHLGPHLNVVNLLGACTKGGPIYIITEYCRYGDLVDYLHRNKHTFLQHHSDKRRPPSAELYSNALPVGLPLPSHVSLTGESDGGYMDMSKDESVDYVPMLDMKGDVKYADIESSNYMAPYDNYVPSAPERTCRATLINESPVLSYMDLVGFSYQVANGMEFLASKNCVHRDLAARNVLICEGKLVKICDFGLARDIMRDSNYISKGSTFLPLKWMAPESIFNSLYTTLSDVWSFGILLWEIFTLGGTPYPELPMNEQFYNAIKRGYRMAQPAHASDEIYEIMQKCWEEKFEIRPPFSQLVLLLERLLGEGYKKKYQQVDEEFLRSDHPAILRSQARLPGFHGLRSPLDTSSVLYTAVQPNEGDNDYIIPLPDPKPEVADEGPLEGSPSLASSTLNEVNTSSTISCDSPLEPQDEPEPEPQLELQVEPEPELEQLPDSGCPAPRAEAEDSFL

hPDGFRb.mmh [8] = target: T2, hPDGFRb.mmh; experiment: blocking ELISA, biot-hPDGFRb.mmh to coated PDGF-BB
Experimental: The equilibrated PDGFR-beta/antibody solutions were added to ligand-coated plates, allowed to incubate for 1 hr, and washed. Levels of bound biot-hPDGFR-beta.mmh were detected using HRP conjugated streptavidin. Data were analyzed using Prism software and IC₅₀ values were calculated as the amount of antibody required to achieve 50% reduction of hPDGFR-beta-mmh bound to ligand. Maximum blocking values were also calculated and reflect the ability of the antibody to block relative to baseline. The absorbance measured at the constant amount of 250 pM biot-hPDGFR-beta-mmh on the dose curve is defined as 0% blocking and the absorbance with no added PDGFR-beta is defined as 100%. The absorbance of the wells containing the highest antibody concentration determined the maximum blocking percent.
Target sequence in this assay (P09619 other isoform, or with tags, fused parts or gaps): as the sequence (P09619 other isoform, or with tags, fused parts or gaps) above

- Kd (human PDGFRb.hFc [1]): 0.606 nM
- koff (human PDGFRb.hFc [1]): 0.000567 s⁻¹
- kon (human PDGFRb.hFc [1]): 936000 M⁻¹ s⁻¹
- t1/2 (human PDGFRb.hFc [1]): 20 min
- Kd (hPDGFRb.mmh [2]): 3.37 nM
- koff (hPDGFRb.mmh [2]): 0.0028 s⁻¹
- kon (hPDGFRb.mmh [2]): 833000 M⁻¹ s⁻¹
- t1/2 (hPDGFRb.mmh [2]): 4 min
- Kd [3]: 4.05 nM
- koff [3]: 0.00299 s⁻¹
- kon [3]: 740000 M⁻¹ s⁻¹
- t1/2 [3]: 4 min
- Kd (human PDGFRb.hFc [4]): 0.304 nM
- koff (human PDGFRb.hFc [4]): 0.000146 s⁻¹
- kon (human PDGFRb.hFc [4]): 480000 M⁻¹ s⁻¹
- t1/2 (human PDGFRb.hFc [4]): 79 min
- Kd (hPDGFRb.mmh [5]): 1.61 nM
- koff (hPDGFRb.mmh [5]): 0.000688 s⁻¹
- kon (hPDGFRb.mmh [5]): 428000 M⁻¹ s⁻¹
- t1/2 (hPDGFRb.mmh [5]): 17 min
- Kd [6]: 0.909 nM
- koff [6]: 0.000714 s⁻¹
- kon [6]: 786000 M⁻¹ s⁻¹
- t1/2 [6]: 16 min
- IC50, blocking PDGF-BB (250 pM) activation, SRE-luciferase [7]: 5e-10 M
- IC50, blocking PDGF-DD (400 pM) activation, SRE-luciferase [7]: 3.3e-10 M
- % Maximum Blocking (hPDGFRb.mmh [8]): 89%
- IC50 (hPDGFRb.mmh [8]): 0.38 nM
B1: H4H3104S (antibody, human IgG4, V domains shown)
VH: QVQLVESGGGLVQPGGSLRLSCAAAGFTFSHYWMSWVRQAPGKGLEWVATIKKDGSERYYVDSVKGRFTISRDNARNSMYLEMNSLRTEDTAIYYCARDIVTPNTDYYFGMDVWGQGTTVTVSS
VL: DIQLTQSPSTLSASVGDRVTITCRASQSFNNWLSWYQQKPGKAPKLLIYMASTLESGVPSRFSGSGSGTDFTLTINSLQPDDFATYYCQQSNSYSRTFGHGTKVEIK
notes: human IgG4 Fc (H4H prefix)

- Kd (human PDGFRb.hFc [1]): 0.206 nM
- koff (human PDGFRb.hFc [1]): 7.66e-05 s⁻¹
- kon (human PDGFRb.hFc [1]): 374000 M⁻¹ s⁻¹
- t1/2 (human PDGFRb.hFc [1]): 151 min
- Kd (hPDGFRb.mmh [2]): 2.34 nM
- koff (hPDGFRb.mmh [2]): 0.00171 s⁻¹
- kon (hPDGFRb.mmh [2]): 733000 M⁻¹ s⁻¹
- t1/2 (hPDGFRb.mmh [2]): 7 min
- Kd [3]: 95.6 nM
- koff [3]: 0.0267 s⁻¹
- kon [3]: 280000 M⁻¹ s⁻¹
- t1/2 [3]: 0.4 min
- Kd (human PDGFRb.hFc [4]): 0.219 nM
- koff (human PDGFRb.hFc [4]): 6.22e-05 s⁻¹
- kon (human PDGFRb.hFc [4]): 280000 M⁻¹ s⁻¹
- t1/2 (human PDGFRb.hFc [4]): 186 min
- Kd (hPDGFRb.mmh [5]): 1.54 nM
- koff (hPDGFRb.mmh [5]): 0.000596 s⁻¹
- kon (hPDGFRb.mmh [5]): 386000 M⁻¹ s⁻¹
- t1/2 (hPDGFRb.mmh [5]): 19 min
- Kd [6]: 68.9 nM
- koff [6]: 0.0094 s⁻¹
- kon [6]: 136000 M⁻¹ s⁻¹
- t1/2 [6]: 1.2 min
- IC50, blocking PDGF-BB (250 pM) activation, SRE-luciferase [7]: 1.2e-09 M
- IC50, blocking PDGF-DD (400 pM) activation, SRE-luciferase [7]: 1.1e-09 M
- % Maximum Blocking (hPDGFRb.mmh [8]): -13%
B2: H4H3098S (antibody, human IgG4, V domains shown)
VH: EVQLVESGGGVVQPGRSLRLSCAASGFTFSNYGMHWVRQAPGKGLEWVTVIWYDGSYKYYADSVKGRFTISRDNSKNRLYLQMNSLRAEDTAVYYCARGELGDAFDIWGQGTMVTVSS
VL: DIQMTQSPSTLSASVGDRLTITCRASQSISTWLAWYQQKPGKAPTLLIYKASSLESGVPSRFSGSGSGTDFTLTISSLQPDDFATYYCQQYKTSWTFGQGTKLEIKR
notes: human IgG4 Fc (H4H prefix)

- binding result (human PDGFRb.hFc [4]): no binding
- binding result (hPDGFRb.mmh [5]): no binding
- binding result [6]: no binding
- % Maximum Blocking (hPDGFRb.mmh [8]): 5%
B3: H4H3097S (antibody, human IgG4, V domains shown)
VH: QVQLVESGAEMKKPGASVKVSCKASGYTFTDYGINWVRQAPGQGLEWMGWVSGYNGNTVFAQKIQGRVTMTTDTSTSTAYMELRSLRSDDTAVYFCARISVRGHSYYHGMGVWGQGTTVTVSS
VL: AIRMTQSPSSLSASVGDRVTITCRASQDINSYLAWFQQKPGKAPKSLIYTASSLQSGVPSKFSGSGSGTDFTLTISSLQPEDFATYYCQQYNTYPYTFGQGTKVESK
notes: human IgG4 Fc (H4H prefix)
